Patent US20240391961A1 (OREGON STATE UNIVERSITY, published 2024)
Changes are numbered by the printed parent chain. Names may count otherwise.

T1: 14-3-3ζ nhpSer58 with a FLAG tag at its N-terminus (Homo sapiens (Human), UniProt P63104 1-245)
T1 sequence: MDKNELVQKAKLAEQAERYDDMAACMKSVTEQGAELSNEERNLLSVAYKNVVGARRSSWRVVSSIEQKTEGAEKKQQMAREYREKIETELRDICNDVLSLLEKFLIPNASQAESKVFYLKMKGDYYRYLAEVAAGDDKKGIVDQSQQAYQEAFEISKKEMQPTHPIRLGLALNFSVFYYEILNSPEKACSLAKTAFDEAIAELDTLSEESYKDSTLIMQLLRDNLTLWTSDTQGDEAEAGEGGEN

B1: Atherin [OS = Homo sapiens] (other, UniProt Q6SPF0 1-538, looked up)
chain: MAGPPALPPPETAAAATTAAAASSSAASPHYQEWILDTIDSLRSRKARPDLERICRMVRRRHGPEPERTRAELEKLIQQRAVLRVSYKGSISYRNAARVQPPRRGATPPAPPRAPRGAPAAAAAAAPPPTPAPPPPPAPVAAAAPARAPRAAAAAATAPPSPGPAQPGPRAQRAAPLAAPPPAPAAPPAVAPPAGPRRAPPPAVAAREPPLPPPPQPPAPPQQQQPPPPQPQPPPEGGAVRAGGAARPVSLREVVRYLGGSGGAGGRLTRGRVQGLLEEEAAARGRLERTRLGALALPRGDRPGRAPPAASARPSRSKRGGEERVLEKEEEEDDDEDEDEEDDVSEGSEVPESDRPAGAQHHQLNGERGPQSAKERVKEWTPCGPHQGQDEGRGPAPGSGTRQVFSMAAMNKEGGTASVATGPDSPSPVPLPPGKPALPGADGTPFGCPPGRKEKPSDPVEWTVMDVVEYFTEAGFPEQATAFQEQEIDGKSLLLMQRTDVLTGLSIRLGPALKIYEHHIKVLQQGHFEDDDPDGFLG
B2: 2-amino-3-ketobutyrate coenzyme A ligase, mitochondrial [OS = Homo sapiens] (other, UniProt O75600 22-419, looked up)
chain: SALAQLRGILEGELEGIRGAGTWKSERVITSRQGPHIRVDGVSGGILNFCANNYLGLSSHPEVIQAGLQALEEFGAGLSSVRFICGTQSIHKNLEAKIARFHQREDAILYPSCYDANAGLFEALLTPEDAVLSDELNHASIIDGIRLCKAHKYRYRHLDMADLEAKLQEAQKHRLRLVATDGAFSMDGDIAPLQEICCLASRYGALVFMDECHATGFLGPTGRGTDELLGVMDQVTIINSTLGKALGGASGGYTTGPGPLVSLLRQRARPYLFSNSLPPAVVGCASKALDLLMGSNTIVQSMAAKTQRFRSKMEAAGFTISGASHPICPVMLGDARLASRMADDMLKRGIFVIGFSYPVVPKGKARIRVQISAVHSEEDIDRCVEAFVEVGRLHGALP
B3: 14-3-3 protein gamma [OS = Homo sapiens] (other, UniProt P61981 1-247, looked up)
chain: MVDREQLVQKARLAEQAERYDDMAAAMKNVTELNEPLSNEERNLLSVAYKNVVGARRSSWRVISSIEQKTSADGNEKKIEMVRAYREKIEKELEAVCQDVLSLLDNYLIKNCSETQYESKVFYLKMKGDYYRYLAEVATGEKRATVVESSEKAYSEAHEISKEHMQPTHPIRLGLALNYSVFYYEIQNAPEQACHLAKTAFDDAIAELDTLNEDSYKDSTLIMQLLRDNLTLWTSDQQDDDGGEGNN
B4: 14-3-3 protein eta [OS = Homo sapiens] (other, UniProt Q04917 2-246, looked up)
chain: GDREQLLQRARLAEQAERYDDMASAMKAVTELNEPLSNEDRNLLSVAYKNVVGARRSSWRVISSIEQKTMADGNEKKLEKVKAYREKIEKELETVCNDVLSLLDKFLIKNCNDFQYESKVFYLKMKGDYYRYLAEVASGEKKNSVVEASEAAYKEAFEISKEQMQPTHPIRLGLALNFSVFYYEIQNAPEQACLLAKQAFDDAIAELDTLNEDSYKDSTLIMQLLRDNLTLWTSDQQDEEAGEGN
B5: 14-3-3 protein beta/alpha [OS = Homo sapiens] (other, UniProt P31946 1-246, looked up)
chain: MTMDKSELVQKAKLAEQAERYDDMAAAMKAVTEQGHELSNEERNLLSVAYKNVVGARRSSWRVISSIEQKTERNEKKQQMGKEYREKIEAELQDICNDVLELLDKYLIPNATQPESKVFYLKMKGDYFRYLSEVASGDNKQTTVSNSQQAYQEAFEISKKEMQPTHPIRLGLALNFSVFYYEILNSPEKACSLAKTAFDEAIAELDTLNEESYKDSTLIMQLLRDNLTLWTSENQGDEGDAGEGEN
B6: Pre-mRNA-splicing factor SLU7 [OS = Homo sapiens] (other, UniProt O95391 2-586, looked up)
chain: SATVVDAVNAAPLSGSKEMSLEEPKKMTREDWRKKKELEEQRKLGNAPAEVDEEGKDINPHIPQYISSVPWYIDPSKRPTLKHQRPQPEKQKQFSSSGEWYKRGVKENSIITKYRKGACENCGAMTHKKKDCFERPRRVGAKFTGTNIAPDEHVQPQLMFDYDGKRDRWNGYNPEEHMKIVEEYAKVDLAKRTLKAQKLQEELASGKLVEQANSPKHQWGEEEPNSQMEKDHNSEDEDEDKYADDIDMPGQNFDSKRRITVRNLRIREDIAKYLRNLDPNSAYYDPKTRAMRENPYANAGKNPDEVSYAGDNFVRYTGDTISMAQTQLFAWEAYDKGSEVHLQADPTKLELLYKSFKVKKEDFKEQQKESILEKYGGQEHLDAPPAELLLAQTEDYVEYSRHGTVIKGQERAVACSKYEEDVKIHNHTHIWGSYWKEGRWGYKCCHSFFKYSYCTGEAGKEIVNSEECIINEITGEESVKKPQTLMELHQEKLKEEKKKKKKKKKKHRKSSSDSDDEEKKHEKLKKALNAEEARLLHVKETMQIDERKRPYNSMYETREPTEEEMEAYRMKRQRPDDPMASFLGQ
B7: Transformer-2 protein homolog alpha [OS = Homo sapiens] (other, UniProt Q13595 2-282, looked up)
chain: SDVEENNFEGRESRSQSKSPTGTPARVKSESRSGSRSPSRVSKHSESHSRSRSKSRSRSRRHSHRRYTRSRSHSHSHRRRSRSRSYTPEYRRRRSRSHSPMSNRRRHTGSRANPDPNTCLGVFGLSLYTTERDLREVFSRYGPLSGVNVVYDQRTGRSRGFAFVYFERIDDSKEAMERANGMELDGRRIRVDYSITKRAHTPTPGIYMGRPTHSGGGGGGGGGGGGGGGGRRRDSYYDRGYDRGYDRYEDYDYRYRRRSPSPYYSRYRSRSRSRSYSPRRY
B8: Cell division cycle 5-like protein [OS = Homo sapiens] (other, UniProt Q99459 1-802, looked up)
chain: MPRIMIKGGVWRNTEDEILKAAVMKYGKNQWSRIASLLHRKSAKQCKARWYEWLDPSIKKTEWSREEEEKLLHLAKLMPTQWRTIAPIIGRTAAQCLEHYEFLLDKAAQRDNEEETTDDPRKLKPGEIDPNPETKPARPDPIDMDEDELEMLSEARARLANTQGKKAKRKAREKQLEEARRLAALQKRRELRAAGIEIQKKRKRKRGVDYNAEIPFEKKPALGFYDTSEENYQALDADFRKLRQQDLDGELRSEKEGRDRKKDKQHLKRKKESDLPSAILQTSGVSEFTKKRSKLVLPAPQISDAELQEVVKVGQASEIARQTAEESGITNSASSTLLSEYNVTNNSVALRTPRTPASQDRILQEAQNLMALTNVDTPLKGGLNTPLHESDFSGVTPQRQVVQTPNTVLSTPFRTPSNGAEGLTPRSGTTPKPVINSTPGRTPLRDKLNINPEDGMADYSDPSYVKQMERESREHLRLGLLGLPAPKNDFEIVLPENAEKELEEREIDDTYIEDAADVDARKQAIRDAERVKEMKRMHKAVQKDLPRPSEVNETILRPLNVEPPLTDLQKSEELIKKEMITMLHYDLLHHPYEPSGNKKGKTVGFGTNNSEHITYLEHNPYEKFSKEELKKAQDVLVQEMEVVKQGMSHGELSSEAYNQVWEECYSQVLYLPGQSRYTRANLASKKDRIESLEKRLEINRGHMTTEAKRAAKMEKKMKILLGGYQSRAMGLMKQLNDLWDQIEQAHLELRTFEELKKHEDSAIPRRLECLKEDVQRQQEREKELQHRYADLLLEKETLKSKF
B9: 14-3-3ζ S58E (other)
chain: T1 sequence with S58E
notes: also called S58E phosphomimetic; 14-3-3ζ with glutamate at residue 58

These binders were tested against T1, 14-3-3ζ nhpSer58 with a FLAG tag at its … (assay: not given).
B1 gave an FC of 0.0524 fold.
B2 was tested, and the FC was 0.0267 fold.
B3 gave an FC of 0.0531 fold.
In the case of B4, the FC is reported as 0.0561 fold.
Binder B5 has an FC of 0.0486 fold.
B6 showed an FC of 0.0628 fold.
Work on B7 yielded an FC of 0.0906 fold.
B8 was tested, and the FC was 0.0607 fold.

Biological target: the molecule itself
Test: SEC-MALS (homodimer)
Description: 14-3-3 dimerization can be regulated by phosphorylation of a serine residue at the dimer interface, e.g., serine residue 58 (Ser58).
B9: binds.
